From PMC11261779, “Structural studies of WDR5 in complex with MBD3C WIN motif reveal a unique binding mode” (The Journal of Biological Chemistry, 2024) come the findings set out here.

Experiment [1] has as its target WD repeat-containing protein 5 (WDR5), truncated construct, residues 24-334 (mouse, UniProt P61965 24-334). The experiment in a line: ITC; peptide (0.5 to 1.0 mM) titrated into WDR5 protein (44.5 μM) in the cell; 20 °C; Buffer D (20 mM Tris-HCl, 200 mM NaCl, pH 7.5); single binding site model. The following applies: both partners purified.
The target in experiment [2] is WDR5 (residues 24-334) D107S (mouse, UniProt P61965 24-334, D107S). The experiment is described as above. The following applies: both partners purified.

B1: MBD3C_(40-51) peptide (methyl-CpG binding domain 3 isoform C, WIN motif) (peptide)
peptide: GAARCRVFSPQG
notes: numbers count on: isoform MBD3C; also called MBD3C peptide; MBD3C WIN motif; source: synthetic peptide (GenScript)
B1: in experiment [1], binding was characterised by a dissociation constant (Kd) of 130 ± 20 nM, the dH is -11.4 ± 0.13 kcal/mol and the “stoichiometry N” value turned out to be 1.06. In addition, in experiment [2], binding was characterised by a dissociation constant (Kd) of 10800 ± 1030 nM, the dH is -5.4 ± 0.17 kcal/mol and the “stoichiometry N” value came to 1.34.

B2: MBD3C_(40-51) (R43K) peptide (peptide)
peptide: GAAKCRVFSPQG
notes: numbers count on: isoform MBD3C; also called MBD3C^R43K; source: synthetic peptide (GenScript)
As to B2, in experiment [1], the Kd came to 1310 ± 210 nM, the dH is -15 ± 0.52 kcal/mol and the “stoichiometry N” value came out at 1.17.

B3: MBD3C_(40-51) (R45E) peptide (peptide)
peptide: GAARCEVFSPQG
notes: numbers count on: isoform MBD3C; also called MBD3C^R45E; source: synthetic peptide (GenScript)
In the case of B3, in experiment [1], binding was characterised by a dissociation constant (Kd) of 670 ± 60 nM, the dH was -7.49 ± 0.08 kcal/mol and the “stoichiometry N” value turned out to be 1.25.

B4: MBD3C_(40-51) (F47A) peptide (peptide)
peptide: GAARCRVASPQG
notes: numbers count on: isoform MBD3C; also called MBD3C^F47A; source: synthetic peptide (GenScript)
B4: in experiment [1], binding was characterised by a dissociation constant (Kd) of 650 ± 30 nM, the dH is -7.32 ± 0.05 kcal/mol and the “stoichiometry N” value stood at 1.34.

B5: MBD3C_(40-51) (F47H) peptide (peptide)
peptide: GAARCRVHSPQG
notes: numbers count on: isoform MBD3C; also called MBD3C^F47H; source: synthetic peptide (GenScript)
Consider B5, for which, in experiment [1], the affinity, expressed as Kd, was 1010 ± 40 nM; the dH is -7.8 ± 0.04 kcal/mol; the “stoichiometry N” value is 0.99.
